# In patent publication US20130309172:
# Key:
# [1] = test system: AuNP-PVGLIGC-PEG (cleavable)
# [2] = target: AuNP-PVGLIGC-PEG (cleavable); remark: listed apart in the source
# [3] = target: AuNP-GIVGPLC-PEG (noncleavable negative control)
Molecule,cleavage of the peptide coating of the AuNP conjugate (UV-vis) [1],"cleavage of the peptide coating of the AuNP conjugate (DLS, zeta potential, UV-vis, TEM, FFF) [2]","cleavage of the peptide coating of the AuNP conjugate (DLS, zeta potential, UV-vis, TEM, FFF) [3]"
trypsin,Cleavable AuNPs treated with trypsin did not exhibit cleavage,,
human matrix metalloproteinase (MMP-2) (protein) YNFFPRKPKWDKNQITYRIIGYTPDLDPETVDDAFARAFQVWSDVTPLRFSRIHDGEADIMINFGRWEHGDGYPFDGKDGLLAHAFAPGTGVGGDSHFDDDELWTLGEGQVVRVKYGNADGEYCKFPFLFNGKEYNSCTDTGRSDGFLWCSTTYNFEKDGKYGFCPHEALFTMGGNAEGQPCKFPFRFQGTSYDSCTTEGRTDGYRWCGTTEDYDRDKKYGFCPETAMSTVGGNSEGAPCVFPFTFLGNKYESCTSAGRSDGKMWCATTANYDDDRKWGFCPDQGYSLFLVAAHEFGHAMGLEHSQDPGALMAPIYTYTKNFRLSQDDIKGIQELYGASPDIDLGTGPTPTLGPVTPEICKQDIVFDGIAQIRGEIFFFKDRFIWRTVTPRDKPMGPLLVATFWPELPEKIDAVYEAPQEEKAVFFAGNEYWIYSASTLERGYPKPLTSLGLPPDVQRVDAAFNWSKNKKTYIFAGDKFWRYNEVKKKMDPGFPKLIADAWNAIPDNLDAVVDLQGGGHSYFFKGAYYLKLENQSLKSVKFGSIKSDWLGC,,cleavable AuNPs were converted to denuded AuNPs following exposure to MMP-2,Non-cleavable control and blocker control AuNPs exhibited no cleavage
